± gives the half width of the 95% confidence interval.
How the values were obtained:
[1] = folding stability dG unfold from trypsin proteolysis; higher = more stable
Outline: (§1)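 Designed mini-proteins (under 80 residues, no cysteine) in a PA-tagged cDNA display construct were digested with trypsin and chymotrypsin. Each protease was used at 11 concentrations (threefold dilutions) plus a no-protease condition, followed by sequencing. K50 was inferred by Bayesian fitting of sequencing counts, and unfolding free energy was derived against a sequence-predicted unfolded-state K50 and a shared folded-state K50, per protease or combined. Only designs with AlphaFold2 dimer inter-PAE above 15 were kept.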

[2] = folding stability dG unfold from chymotrypsin proteolysis; higher = more stable
Outline: as §1

[3] = folding stability dG unfold (combined trypsin and chymotrypsin); higher = more stable
Outline: as §1

Sequence	folding stability dG unfold [1] [kcal/mol]	folding stability dG unfold [2] [kcal/mol]	folding stability dG unfold [3] [kcal/mol]
SAGGSAMDAKVVDLSLPFTLSEDGSLTATVTIEFPDGSKVPIEIPGREDGELKLEEILAAAKEALGSAGGSA [r15_233_TrMRF]	0.553 ± 0.093	0.27 ± 0.069	0.478 ± 0.14
SAGGSAMDLKIKKKERDPPNGTKKLTVEVPGWEVEINIERNPDGPYKIEIYAPNPAAKNAIKEFIKSAGGSA [r15_42_TrROS]	-0.275 ± 0.26	0.488 ± 0.18	0.324 ± 0.2
SAGGSAMDPSKLVRKKVRFRVVDPNGKPLGEIDIEVEFPGGVSEEEAEELLRELIAALAPPAGVEGSAGGSA [r15_310_TrMRF]	1.52 ± 0.022	3.023 ± 0.023	2.73 ± 0.071
SAGGSAMEEEKPPKVKVRITVELEDGEKLEIEFETKEEAEEAAEALAKELEEKTGLKIKKIEVEEVSAGGSA [r15_140_TrROS_Hall]	2.77 ± 0.11	2.96 ± 0.13	2.81 ± 0.23
SAGGSAMEIDIDPEKNEIRIYNPWNGQPHPFTIESIEPIDPDNKYFKFKIKYPDTGKEMPFMVQIDSAGGSA [r15_209_TrROS]	0.57 ± 0.042	1.4 ± 0.15	1.08 ± 0.12
SAGGSAMEIKTLETKTVKTEKLPDGSTKVTTTYKTVDPSGGKTSNYIKTTLYAPDGKKTSTEVKEKSAGGSA [r15_758_JUSTAS]	0.355 ± 0.048	1.03 ± 0.098	0.773 ± 0.1
SAGGSAMEKLKEIPGIERIEVKEDGKIIIHVKMSEEERKKLAEALRKEGKVKIEVVPVEVEEEEEESAGGSA [r15_554_TrROS_Hall]	2.83 ± 0.12	2.03 ± 0.072	2.3 ± 0.11
SAGGSAMFYLLKVELPDGKVLEIRIEATPEEKEEFVEKIKSHPEVKSVELEPISKEEAEELGFEEISAGGSA [r15_39_TrMRF]	2.62 ± 0.12	3.274 ± 0.025	3.08 ± 0.12
SAGGSAMGMRPVRREFTGSGMRITVEVVESTSIPTAEIRVLDPEGRLLRERRLPAEEVEREIARLLSAGGSA [r15_940_JUSTAS]	1.34 ± 0.069	1.58 ± 0.092	1.55 ± 0.096
SAGGSAMIEIEIVKPNASPEEAEKLEKEVREKLLEEGVPEEVVKEVNIKVIVKPVKKDKNNNPILESAGGSA [r15_684_JUSTAS]	-0.215 ± 0.15	0.977 ± 0.19	0.811 ± 0.2
SAGGSAMIEIKVEVNGKTYRITIEKNEDGTLTLTVYDEKTGKKTEIEIPLENLEELKKLNVKRIEISAGGSA [r15_629_TrROS_Hall]	1.78 ± 0.077	3.54 ± 0.036	3.09 ± 0.12
SAGGSAMIKTSYDPNGKTIYTIPETGAVITVDPSTGKVTVEVDPESQANNPLPEEEVKKLAEEVLKSAGGSA [r15_735_JUSTAS]	0.481 ± 0.049	1.34 ± 0.018	1.1 ± 0.043
SAGGSAMIVIPVDPNDPAAEKTVAEAIAAGKDVIIRSPSGKYTFYKPDGSKKELSSEEEIKKAGLESAGGSA [r15_94_JUSTAS]	0.249 ± 0.086	-0.495 ± 0.77	0.0288 ± 0.19
SAGGSAMKAKEIKRLKLKDRPLVVIFLENPEGGYSVLVIPLENPEKVEELLEELVKEGLLDEITPESAGGSA [r15_575_TrMRF]	1.03 ± 0.031	1.93 ± 0.082	1.59 ± 0.074
SAGGSAMKIEEIEKVELKKNENGELTAKIIIKDKKTNKYIEIEITVKPGMTLEEIKKLAEELLKKLSAGGSA [r15_181_TrROS_Hall]	3.42 ± 0.13	1.96 ± 0.075	2.73 ± 0.14
SAGGSAMKITLKTKDGKEIEIEVEEKTNENGEKYLVLKIKDKKTNKEYTIVMSKEELEELLKKLLSSAGGSA [r15_92_TrROS_Hall]	4.33 ± 0.21	5.48 ± 0.11	5.55 ± 0.17
SAGGSAMKLTFTDSKGRTIEITVEKKYLPNGEPYLIITIKYPDTDEEIVITMPTSNIDEILEKLLNSAGGSA [r15_92_JUSTAS]	4.06 ± 0.32	4.28 ± 0.11	4.27 ± 0.24
SAGGSAMLDNLVPVGSVTVVERFPDGLLRVVNYTFWRDPESGAWYVSADVEVFPLLPEDPVLLEAGSAGGSA [r15_207_TrMRF]	2.24 ± 0.11	3.88 ± 0.048	3.6 ± 0.11
SAGGSAMLENLPELDIKIKVEYKAEILPDGSLLIPAKIELEIGDKKFEFEAKILINPNGEITIEIGSAGGSA [r15_891_TrMRF]	2.97 ± 0.26	2.45 ± 0.31	2.96 ± 0.31
SAGGSAMLPDEVTVKPVEMPVPPDLTLEELEQEVRERAGPGTSVEVSYDPATGVATVTVTDARPALSAGGSA [r15_749_JUSTAS]	-0.162 ± 0.035	1.44 ± 0.029	1.03 ± 0.04
SAGGSAMLRVFEKEHPGPFSITVLAGPGLSEEEIEELAEKLAEKKIEIEKKKIELEKKGKKPIFKKSAGGSA [r15_704_JUSTAS]	0.327 ± 0.21	0.235 ± 0.43	0.0936 ± 0.43

Sequence	folding stability dG unfold [1] [kcal/mol]	folding stability dG unfold [2] [kcal/mol]	folding stability dG unfold [3] [kcal/mol]
SAGGSAMMTVTITIPKENLTKEEIKKALEEAGAKVVKVEEKDGKVTVTVEMTPEQVEKLKEALKKLSAGGSA [r15_161_TrROS_Hall]	3.98 ± 0.46	3.53 ± 0.28	4.14 ± 0.45
SAGGSAMNPKLEALPEVEITEEKTEEYKTAENKKLLVKEYKSNAEPGKTYKVIYDPETGKVLSVEESAGGSA [r15_66_JUSTAS]	0.0954 ± 0.059	1.1 ± 0.11	0.737 ± 0.1
SAGGSAMPDDPLVLRANIPFVVVGPDGRPRLFRREILVPFASEEEAERFRRELEALGAEVEPVARASAGGSA [r15_117_TrMRF]	1.62 ± 0.051	2.17 ± 0.13	1.93 ± 0.12
SAGGSAMPDLAAAPGVTRVEPYPDGLVEIHLDGSEEARDEIEERLRAAGDFEIYRLPDRDTLLVRASAGGSA [r15_554_TrMRF]	-0.00819 ± 0.26	-0.165 ± 0.55	-0.025 ± 0.29
SAGGSAMPDMTAEELAAEVAKKLPPGEKVLIKIRNKNGETKTFELGEDISDLPADEVTEIEIEVLPSAGGSA [r15_50_TrROS_Hall]	0.248 ± 0.073	1.05 ± 0.036	0.781 ± 0.054
SAGGSAMPLEELKKVTITLSFYNENGELVAEMTLEYDEETDVFTMTVKVRYNGKTYTVEMEFKLLPSAGGSA [r15_278_TrROS_Hall]	4.5 ± 0.56	5.29 ± 0.2	5.23 ± 0.32
SAGGSAMPLLKPPKTIRLRILFKVPEPGKELDITEEAVRELFNPFGAKVRIYRDGDYVLIEVEFVVSAGGSA [r15_377_TrMRF]	4.03 ± 0.097	3.37 ± 0.089	3.85 ± 0.15
SAGGSAMPVEFPSEGVVEAVNPKTGKVYLIRYETGDTKTRFVIFEPGTGEVRVIDEDTTFEEAVEDSAGGSA [r15_234_TrMRF]	0.802 ± 0.036	0.382 ± 0.16	0.674 ± 0.088
SAGGSAMREIRVGDTVVRILSIDPSTGEVHIAVREDLPPETIEAARRALEEAGLRFRVEPVPEELLSAGGSA [r15_570_TrMRF]	1.73 ± 0.065	2.33 ± 0.028	2.15 ± 0.053
SAGGSAMRIKVTLENGEEIEIEIEESMTEEEVKELAEELAKKLAEELGIKEVKVEVEEVELPEEEESAGGSA [r15_33_TrROS_Hall]	1.68 ± 0.11	2.96 ± 0.054	2.53 ± 0.11
SAGGSAMRPLELENPNGREITIWYNPGEGHFQVEIERYEPPPNGKKKPQRHTFMVNSPEDLLDFIKSAGGSA [r15_31_TrROS]	1.57 ± 0.046	1.6 ± 0.15	1.65 ± 0.19
SAGGSAMTITIKIENEDVTIPSSKSKEEILKAIKENPDVPVTVTLPDGTPVTLSPEELEKLIKEEKSAGGSA [r15_36_JUSTAS]	1.02 ± 0.032	1.23 ± 0.022	1.11 ± 0.11
SAGGSAMTIYIKNKDGYIIKIEITKIEEIGPNYIKIKMKMEIINKNGEKKEIELELIFKVKNPEELSAGGSA [r15_1035_TrROS_Hall]	2.54 ± 0.33	4 ± 0.099	3.79 ± 0.28
SAGGSAMTKVTVTFDPVTGTYTIKTTDSKGPSEYPLPKSFLEKTPLSEVAKKLNLNISEFTIEPNPSAGGSA [r15_801_JUSTAS]	0.771 ± 0.044	1.25 ± 0.099	1.14 ± 0.092
SAGGSAMTLEDLKDEFVVITLPDGTVVKAKVEEVDTKGPVLTILVGGKPILIPADAPVKIEIEPPKSAGGSA [r15_355_JUSTAS]	1.74 ± 0.063	1.36 ± 0.033	1.53 ± 0.043
SAGGSAMTPEEIRNMSLEEILKLIKEKLEKGEKVEIEITLPDGRKLRITFERLPNGEIKITIEEVDSAGGSA [r15_857_TrROS_Hall]	3.53 ± 0.2	5.04 ± 0.32	4.72 ± 0.28
SAGGSAMTPVTLEITSEEELEAKIEELAPPGRTVTINVTSTTEKTRVEDDVTRDYTVVTANVTFPPSAGGSA [r15_95_JUSTAS]	0.181 ± 0.1	0.573 ± 0.04	0.399 ± 0.12
SAGGSAMTVTLIVGDKPITIPLTASLSDIKAALEEHPDVPVYIILPNGKRIEMKVSDLIKMMEKAGSAGGSA [r15_36_TrMRF]	2.99 ± 0.058	3.35 ± 0.099	3.16 ± 0.1
SAGGSAMVKTADGKEVKVEKVIPLEEMSLEELKALAEKNNKPILIVDKKTKKVIVLTKEELEKLLKSAGGSA [r15_904_TrROS_Hall]	0.858 ± 0.066	1.73 ± 0.071	1.33 ± 0.22
SAGGSAMVLVRIKLKHPEREEVIEVPAGELLEILEHPELNEHWEIVEIEAREVPPEFVEPEELEEESAGGSA [r15_460_TrMRF]	0.85 ± 0.087	0.896 ± 0.18	0.888 ± 0.13
